# Measurements: the supplement of paper PMC7877785
# ± gives the uncertainty stated by the source.
# Assay: self-splicing fitness, log relative to wild type (ln ratio); higher = more splicing; Tetrahymena group I intron in knt gene, E. coli kanamycin selection, DiMSum; sequences stand for … in CUCUCU…GGAGGGAAAAGUUAUCAGGCAUGCACCUGGUAGCUAGUCUUUAAACCAAUAGAUUGCAUCGGUUUAAAAGGCAAGACCGUCAAAUUGCGGGAAAGGGGUCAACAGCCGUUCAGUACCAAGUCUCAGGGGAAACUUUGAGAUGGCCUUGCAAAGGGUAUGGUAAUAAGCUGACGGACAUGGUCCUAACCACGCAGCCAAGUCCUAAGUCAACAGAUCUUCUGUUGAUAUGGAUGCAGUUCACAGACUAAAUGUCGGUCGGGGAAGAUGUAUUCUUCUCAUAAGAUAUAGUCGGACCUCUCCUUAAUGGGAGCUAGCGGAUGAAGUGAUGCAACACUGGAGCCGCUGGGAACUAAUUUGUAUGCGAAAGUAUAUUGAUUAGUUUUGGAGUACUCGUGGUCG
# Procedure, shortened: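 DiMSum derived fitness as the error-weighted combination of fold changes across replicates, kanamycin versus no kanamycin, normalised to wild type. E. coli BL21(DE3) held the library, which randomised all eight P1ex-region intron nucleotides within the knt kanamycin-resistance gene on pET-22b(+). Six replicate transformations grew overnight at 37°C or 30°C on LB agar with or without 25 μg/mL kanamycin, also containing 100 μg/mL carbenicillin, 50 μM IPTG and 0.2% rhamnose, and pooled colonies were amplicon-sequenced on an Illumina HiSeq 2500.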
Sequence,self-splicing fitness (ln) (30 °C),self-splicing fitness (ln) (37 °C)
UAUAAGCAAUAUUACGAUUC,-2.68 ± 0.15,-1.57 ± 0.32
UAUAAGCAAUAUUACGCAAC,-3.03 ± 0.4,–
UAUAAGCAAUAUUACGCACA,-0.168 ± 0.085,-0.211 ± 0.11
UAUAAGCAAUAUUACGCACG,-0.779 ± 0.16,-0.566 ± 0.17
UAUAAGCAAUAUUACGCGGA,-2.14 ± 0.18,-0.954 ± 0.16
UAUAAGCAAUAUUACGCGGU,-3.64 ± 0.26,-3.54 ± 0.34
UAUAAGCAAUAUUACGCUAC,-3.61 ± 0.21,-1.32 ± 0.17
UAUAAGCAAUAUUACGCUAG,-2 ± 0.18,-0.688 ± 0.23
UAUAAGCAAUAUUACGGAAG,-2.72 ± 0.18,-2.05 ± 0.18
UAUAAGCAAUAUUACGGAGG,-2.6 ± 0.28,-1.67 ± 0.19
UAUAAGCAAUAUUACGGCAC,-1.53 ± 0.17,-0.422 ± 0.23
UAUAAGCAAUAUUACGGCAG,-0.0494 ± 0.099,-0.0977 ± 0.14
UAUAAGCAAUAUUACGGGAU,-3.79 ± 0.32,-2.86 ± 0.19
UAUAAGCAAUAUUACGGUAU,-3.16 ± 0.16,-2.25 ± 0.17
UAUAAGCAAUAUUACGUAAA,-2.23 ± 0.12,-0.632 ± 0.14
UAUAAGCAAUAUUACGUACC,-2.51 ± 0.19,-1.2 ± 0.16
UAUAAGCAAUAUUACGUCCG,-0.775 ± 0.11,-0.223 ± 0.15
UAUAAGCAAUAUUACGUGUC,-3.33 ± 0.25,-1.5 ± 0.34
UAUAAGCAAUAUUACGUGUU,-3.24 ± 0.17,-2.22 ± 0.22
UAUAAGCAAUAUUACGUUCA,-0.586 ± 0.09,-0.352 ± 0.14
UAUAAGCAAUAUUACGUUCC,-1.83 ± 0.31,–
UAUAAGCAAUAUUACGUUUC,-3.5 ± 0.38,-2.43 ± 0.35
UAUCAGCAAUAUUACGAAAA,-0.436 ± 0.13,-0.123 ± 0.17
UAUCAGCAAUAUUACGAAUC,-3.49 ± 0.26,-0.458 ± 0.14
UAUCAGCAAUAUUACGACGG,-0.775 ± 0.098,0.242 ± 0.13

Sequence,self-splicing fitness (ln) (30 °C),self-splicing fitness (ln) (37 °C)
UAUCAGCAAUAUUACGAGCU,-2.71 ± 0.28,-1.35 ± 0.21
UAUCAGCAAUAUUACGAGUU,-2.58 ± 0.1,-0.829 ± 0.089
UAUCAGCAAUAUUACGAUCG,-0.364 ± 0.095,0.612 ± 0.14
UAUCAGCAAUAUUACGCAGU,-2.62 ± 0.13,-0.577 ± 0.11
UAUCAGCAAUAUUACGCCAC,-3.63 ± 0.48,–
UAUCAGCAAUAUUACGCCCU,-0.754 ± 0.11,-0.333 ± 0.14
UAUCAGCAAUAUUACGCGAA,-0.515 ± 0.12,-0.291 ± 0.15
UAUCAGCAAUAUUACGCUAG,-0.545 ± 0.1,-0.149 ± 0.12
UAUCAGCAAUAUUACGCUGU,-3.25 ± 0.2,-2.16 ± 0.15
UAUCAGCAAUAUUACGGAAG,-0.901 ± 0.1,-0.651 ± 0.12
UAUCAGCAAUAUUACGGACU,-0.533 ± 0.058,-0.127 ± 0.071
UAUCAGCAAUAUUACGGUGG,-1.2 ± 0.077,-0.377 ± 0.088
UAUCAGCAAUAUUACGUACG,-0.641 ± 0.087,0.404 ± 0.11
UAUCAGCAAUAUUACGUCAG,-1.42 ± 0.093,-0.143 ± 0.11
UAUCAGCAAUAUUACGUCCA,-0.388 ± 0.12,-0.0388 ± 0.13
UAUCAGCAAUAUUACGUGGC,-4.28 ± 0.36,-2.41 ± 0.27
UAUCAGCAAUAUUACGUUGU,-3.84 ± 0.19,-2.62 ± 0.21
UAUCAGCAAUAUUACGUUUA,-0.174 ± 0.055,-0.0219 ± 0.069
UAUGAGCAAUAUUACGACGC,–,-1.38 ± 0.32
UAUGAGCAAUAUUACGACGG,-2.02 ± 0.13,-1.83 ± 0.19
UAUGAGCAAUAUUACGAGCG,-1.32 ± 0.12,-1.26 ± 0.16
UAUGAGCAAUAUUACGAGGA,–,-1.91 ± 0.27
UAUGAGCAAUAUUACGAGGU,–,-3.62 ± 0.46
UAUGAGCAAUAUUACGAUUC,–,-1.6 ± 0.45
UAUGAGCAAUAUUACGCAAG,-2.66 ± 0.24,-1.36 ± 0.23
